These results are taken from US7935343B2 (MedImmune Limited, dated 2011).

By Kd is commonly meant the equilibrium constant for the complex coming apart. By koff is commonly meant the rate constant with which the complex falls apart. A word on the kon: it is the rate constant with which the complex forms. A lower kon goes with slow association.

One assay has as its target T1, murine IL-13 (murine).
T1 chain: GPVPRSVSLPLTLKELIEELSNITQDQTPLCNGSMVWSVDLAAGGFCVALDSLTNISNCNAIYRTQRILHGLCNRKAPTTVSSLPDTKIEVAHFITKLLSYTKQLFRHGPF
The assay can be described thus: BIAcore, IgG4 coupled to the chip, IL-13 in flow. A general note: Surface plasmon resonance follows binding to a sensor surface in real time, without labels.

For assay [1], the target named is human IL-13 (human). Briefly: BIAcore, IgG coupled to the chip, IL-13 in flow.
human IL-13 (human), sequence (chain, as listed by the source): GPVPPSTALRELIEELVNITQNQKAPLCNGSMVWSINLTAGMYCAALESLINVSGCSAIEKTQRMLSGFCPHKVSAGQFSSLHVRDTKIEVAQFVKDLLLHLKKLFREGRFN
The target of assay [2] is human IL-13 (human). The assay can be described thus: cell-based or functional assay.
The target in assay [3] is native human IL-13 released from HDLM-2 cells (human). Briefly: cell-based or functional assay.
native human IL-13 released from HDLM-2 cells (human), sequence (chain, as listed by the source): as above
The target of assay [4] is human IL-13 (human). The assay can be described thus: BIAcore, IgG4 coupled to the chip, IL-13 in flow.
Assay [5] addresses human IL-13 (human). The assay can be described thus: cell-based or functional assay. This is another data set of the same source.

B1: BAK209B11 human IgG4 (antibody, V domains shown)
VH: VQLQESGGGGLVQPGGSLRLSCAASGFTFSSYGMSWVRQAPGKGLEWVSSISASGDSTFYADSVKGRFTISRDNNKNMVFLQVNSLRADDTAVYFCAKDWSQWLVGDAFDVWGRGTTVTVSS
VL: DIQLTQSPSTLSASVGDRVTITCRASQSVSLWVAWYQQRPGKAPKLLIYDGSTLQSGVPARFSGSGSGTEFTLTISSLQPDDFATYYCQQYKTFSTFGQGTKVEIKR
In the assay with murine IL-13, B1 showed a Kd of 5.1 nM, a koff of 0.0198 s⁻¹ and a kon of 3.9e+06 M⁻¹ s⁻¹.

B2: BAK278D6 IgG (antibody, V domains shown)
VH: EVQLVQSGAEVKKPGASVKVSCKASGYTFRNYGLSWVRQAPGQGLEWMGWISANNGDTNYGQEFQGRITMTTETSTNTAHMELRSLRSDDTAVYYCVRDSSSNWARWFFDLWGKGTMVTVSS
VL: SYVLTQPPSVSVAPGQTARIPCGGNNIGSKLVHWYQQKPGQAPVLVVYDDGDRPSGIPERFSGSNSGNTATLTISRIDAGDEADYYCQVWDTGSDPVVFGGGTKLTVL
Consider B2, for which, in the assay with human IL-13 [1], binding was put at a Kd of 13.5 nM, the off-rate (koff) came out at 0.00741 s⁻¹ and the kon came to 549000 M⁻¹ s⁻¹.

B3: BAK502G9 scFv (scFv, V domains shown)
VH: QVQLVQSGAEVKKPGASVKVSCKASGYTFTNYGLSWVRQAPGQGLEWMGWISANNGDTNYGQEFQGRVTMTTDTSTSTAYMELRSLRSDDTAVYYCARDSSSSWARWFFDLWGRGTLVTVSS
VL: SYVLTQPPSVSVAPGKTARITCGGNIIGSKLVHWYQQKPGQAPVLVIYDDGDRPSGIPERFSGSNSGNTATLTISRVEAGDEADYYCQVWDTGSDPVVFGGGTKLTVL
As for B3, the “IC50, TF-1 proliferation (Mean TF1)” value with human IL-13 [2] stood at 8 nM.

B4: BAK1183H4 IgG4 (antibody, V domains shown)
VH: QVQLVQSGAEVKKPGASVKVSCKASGYTFTNYGLSWVRQAPGQGLEWMGWINYDGGNTQYGQEFQGRVTMTTDTSTSTAYMELRSLRSDDTAVYYCARDSSSSWARWFFDLWGRGTLVTVSS
VL: SYVLTQPPSVSVAPGKTARITCGGNIIGSKLVHWYQQKPGQAPVLVIYDDGDRPSGIPERFSGSNSGNTATLTISRVEAGDEADYYCQVWDTGSDPVVFGGGTKLTVL
Take B4: the “IC50, HDLM-2 cell proliferation” value in assay [3] was 3.5 nM. The molecule further came in with a Kd with human IL-13 [4] of 0.081 nM.

B5: BAK1167F2 IgG4 (antibody, V domains shown)
VH: QVQLVQSGAEVKKPGASVKVSCKASGYTFEQTGVSWVRQAPGQGLEWMGWISANNGDTNYGQEFQGRVTMTTDTSTSTAYMELRSLRSDDTAVYYCARDSSSSWARWFFDLWGRGTLVTVSS
VL: SYVLTQPPSVSVAPGKTARITCGGNIIGSKLVHWYQQKPGQAPVLVIYDDGDRPSGIPERFSGSNSGNTATLTISRVEAGDEADYYCQVWDTGSDPVVFGGGTKLTVL
Consider B5, for which the “IC50, HDLM-2 cell proliferation” value in assay [3] worked out at 1.1 nM. In the assay with human IL-13 [4], this molecule had an equilibrium dissociation constant (Kd) of 0.136 nM.

B6: BAK1183H4 scFv (scFv, V domains shown)
VH: QVQLVQSGAEVKKPGASVKVSCKASGYTFTNYGLSWVRQAPGQGLEWMGWINYDGGNTQYGQEFQGRVTMTTDTSTSTAYMELRSLRSDDTAVYYCARDSSSSWARWFFDLWGRGTLVTVSS
VL: SYVLTQPPSVSVAPGKTARITCGGNIIGSKLVHWYQQKPGQAPVLVIYDDGDRPSGIPERFSGSNSGNTATLTISRVEAGDEADYYCQVWDTGSDPVVFGGGTKLTVL
B6: in the assay with human IL-13 [2], the “IC50, TF-1 proliferation (Mean TF1)” value worked out at 0.2 nM.

B7: BAK502G9 IgG4 (antibody, V domains shown)
VH: QVQLVQSGAEVKKPGASVKVSCKASGYTFTNYGLSWVRQAPGQGLEWMGWISANNGDTNYGQEFQGRVTMTTDTSTSTAYMELRSLRSDDTAVYYCARDSSSSWARWFFDLWGRGTLVTVSS
VL: SYVLTQPPSVSVAPGKTARITCGGNIIGSKLVHWYQQKPGQAPVLVIYDDGDRPSGIPERFSGSNSGNTATLTISRVEAGDEADYYCQVWDTGSDPVVFGGGTKLTVL
In the case of B7, in assay [3], the “IC50, HDLM-2 cell proliferation” value was determined as 4.6 nM.

B8: BAK1167F2 scFv (scFv, V domains shown)
VH: QVQLVQSGAEVKKPGASVKVSCKASGYTFEQTGVSWVRQAPGQGLEWMGWISANNGDTNYGQEFQGRVTMTTDTSTSTAYMELRSLRSDDTAVYYCARDSSSSWARWFFDLWGRGTLVTVSS
VL: SYVLTQPPSVSVAPGKTARITCGGNIIGSKLVHWYQQKPGQAPVLVIYDDGDRPSGIPERFSGSNSGNTATLTISRVEAGDEADYYCQVWDTGSDPVVFGGGTKLTVL
B8: in the assay with human IL-13 [2], the “IC50, TF-1 proliferation (Mean TF1)” value is 0.2 nM.

B9: BAK615E3 scFv (scFv, V domains shown)
VH: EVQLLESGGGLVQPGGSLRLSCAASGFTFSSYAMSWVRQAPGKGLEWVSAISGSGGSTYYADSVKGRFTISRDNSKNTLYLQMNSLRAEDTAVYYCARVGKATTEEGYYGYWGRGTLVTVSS
VL: NFMLTQPHSVSESPGKTVTISCTRSSGSIASNYVQWYQQRPGSAPTTVIYDDNQRPSGVPDRFSGSIDSSSNSASLTISGLKTEDEADYYCQSYDSNNDVFGGGTKVTVL
Consider B9, for which the “IC50, TF-1 cell proliferation” value with human IL-13 [5] stood at 3 nM.
